The text below walks through data of patent US20110300138A1 (published 2011).

For assay [1], the target named is T1, human TSH receptor (full length), coated on tubes (human, UniProt P16473 22-764).
T1 construct: TSHR coated tubes as described in WO2004/050708A2; The receptor is full length and held on plastic tubes through a mouse MAb to the TSHR; also called thyroid stimulating hormone receptor
The assay can be described thus: inhibition of 125I-K1-70 Fab (competitor) binding to TSHR coated tubes; 0.03 µg/mL in assay buffer. As to the method: (§1) Binding inhibition assays were carried out using TSHR coated tubes as described in WO2004/050708A2. […] After aspiration, the tubes were washed and 100 μL of ¹²⁵I-labelled protein (5×10⁴ cpm) added and incubated for 1 hour at room temperature with shaking. The tubes were then aspirated, washed and counted in a gamma counter. Inhibition of labelled protein binding was calculated as 100×[1−(cpm bound in the presence of test material/cpm bound in the presence of control material)].

In assay [2] the target is T1, human TSH receptor (full length), …. The assay is described as follows: inhibition of 125I-K1-70 Fab (competitor) binding to TSHR coated tubes; 0.001 µg/mL in HBD serum pool. As to the method:
as §1

Assay [3] has the same target. The assay is described as follows: inhibition of 125I-K1-70 Fab (competitor) binding to TSHR coated tubes; 0.3 µg/mL in HBD serum pool. On the procedure:
as §1

Assay [4] has the same target. The assay is described as follows: inhibition of 125I-K1-70 Fab (competitor) binding to TSHR coated tubes; 30 µg/mL in HBD serum pool. As to the method:
as §1

Assay [5] shares this target. The assay can be described thus: inhibition of 125I-K1-70 Fab (competitor) binding to TSHR coated tubes; 1 µg/mL in HBD serum pool. On the procedure: as §1
For assay [6] the target is unchanged. The assay can be described thus: inhibition of 125I-K1-70 Fab (competitor) binding to TSHR coated tubes; 0.03 µg/mL in HBD serum pool. On the procedure:
as §1

The target is the same in assay [7]. The assay is described as follows: inhibition of 125I-K1-70 Fab (competitor) binding to TSHR coated tubes; 100 µg/mL in assay buffer. On the procedure: as §1
For assay [8] the target is unchanged. The assay is described as follows: inhibition of 125I-K1-70 Fab (competitor) binding to TSHR coated tubes; 3 µg/mL in assay buffer. On the procedure: as §1
Assay [9] has the same target. The assay is described as follows: inhibition of 125I-K1-70 Fab (competitor) binding to TSHR coated tubes; 0.001 µg/mL in assay buffer. As to the method:
as §1

The target is the same in assay [10]. The assay is described as follows: inhibition of 125I-K1-70 Fab (competitor) binding to TSHR coated tubes; 0.01 µg/mL in HBD serum pool. On the procedure:
as §1

Assay [11] shares this target. The assay can be described thus: inhibition of 125I-K1-70 Fab (competitor) binding to TSHR coated tubes; 0.003 µg/mL in HBD serum pool. On the procedure: as §1
Assay [12] has the same target. The assay is described as follows: inhibition of 125I-K1-70 Fab (competitor) binding to TSHR coated tubes; 0.1 µg/mL in assay buffer. On the procedure: as §1
Assay [13] has the same target. The assay is described as follows: inhibition of 125I-K1-70 Fab (competitor) binding to TSHR coated tubes; 30 µg/mL in assay buffer. On the procedure:
as §1

For assay [14] the target is unchanged. The assay is described as follows: inhibition of 125I-K1-70 Fab (competitor) binding to TSHR coated tubes; 10 µg/mL in HBD serum pool. On the procedure:
as §1

Assay [15] has the same target. The assay can be described thus: inhibition of 125I-K1-70 Fab (competitor) binding to TSHR coated tubes; 0.1 µg/mL in HBD serum pool. On the procedure: as §1
Assay [16] has the same target. The assay can be described thus: inhibition of 125I-K1-70 Fab (competitor) binding to TSHR coated tubes; 0.3 µg/mL in assay buffer. As to the method:
as §1

The target is the same in assay [17]. The assay can be described thus: inhibition of 125I-K1-70 Fab (competitor) binding to TSHR coated tubes; 1 µg/mL in assay buffer. On the procedure:
as §1

The target is the same in assay [18]. The assay can be described thus: inhibition of 125I-K1-70 Fab (competitor) binding to TSHR coated tubes; 0.003 µg/mL in assay buffer. As to the method: as §1
Assay [19] shares this target. The assay can be described thus: inhibition of 125I-K1-70 Fab (competitor) binding to TSHR coated tubes; 0.01 µg/mL in assay buffer. On the procedure:
as §1

For assay [20] the target is unchanged. The assay can be described thus: inhibition of 125I-K1-70 Fab (competitor) binding to TSHR coated tubes; 3 µg/mL in HBD serum pool. As to the method:
as §1

For assay [21] the target is unchanged. The assay can be described thus: inhibition of 125I-K1-70 Fab (competitor) binding to TSHR coated tubes; 10 µg/mL in assay buffer. As to the method: as §1
The target is the same in assay [22]. The assay is described as follows: inhibition of 125I-K1-70 Fab (competitor) binding to TSHR coated tubes; 100 µg/mL in HBD serum pool. As to the method:
as §1

B1: K1-70 IgG (antibody, V domains shown)
VH: EVQLVQSGAEVKKPGQSLKISCKASGYSLTDNWIGWVRQKPGKGLEWMGIIYPGDSDTRYSPSFQGQVTISADKSINTAYLQWSSLKASDTAIYYCVGLDWNYNPLRYWGPGTLVTVSS
VL: QSVLTQPPSVSAAPGQKVTISCSGSSSDIGSNYVSWYQQFPGTAPKLLIYDNNKRPSAIPDRFSGSKSGTSATLGITGLQTGDEADYYCGTWDSRLGIAVFGGGTQLTVLG
notes: Human IgG1 lambda purified from hetero-hybridoma supernatant; also called human monoclonal autoantibody to the TSHR with TSH antagonist activity
On to B1, for which the “Inhibition of binding (%)” value is 89% in assay [1]; -8.8% in assay [2]; 97% in [3]; 97.4% in [4]; 94.1% in assay [5]; 37.8% in assay [6]. For the same molecule, the “Inhibition of binding (%)” value is 97.7% in assay [7]; 95.5% in assay [8]; 5.5% in assay [9]; 10.6% in assay [10]; -0.8% in assay [11]; 93.5% in assay [12]. The “Inhibition of binding (%)” value in [13] stood at 97.7%; in assay [14] it was 96.6%; in assay [15] it was 66.5%; in assay [16], 94.2%; in assay [17], 95.2%; in assay [18] it was 27.7%. The “Inhibition of binding (%)” value amounted to 66.2% in [19], 96.2% in assay [20], 96.9% in assay [21] and 97.7% in assay [22].

B2: K1-70 Fab (Fab, V domains shown)
VH: B1 VH
VL: B1 VL
As for B2, the “Inhibition of binding (%)” value in assay [1] is 89%; in assay [2], -2.5%; in assay [3], 91.4%; in assay [4], 95.7%; in assay [5] it was 94.2%; in assay [6], 57.2%. Moreover, the “Inhibition of binding (%)” value in assay [7] is 96.7%; in [8] it was 93.5%; in [9], 11.9%; in [10], 25.3%; in assay [11], 2.5%; in assay [12], 92.2%. Also, the “Inhibition of binding (%)” value in assay [13] came out at 95.1%; in assay [14], 94.8%; in [15] it was 81.9%; in assay [16], 92.7%; in [17] it was 93.5%; in [18], 40%. Moreover, the “Inhibition of binding (%)” value in assay [19] was found to be 75.6%; in assay [20], 94.9%; in [21], 93.6%; in assay [22], 96.3%.

B3: K1-18 IgG (antibody, V domains shown)
VH: EVQLVQSGAEVKKPGESLKISCKGSGYSFTNYWIGWVRQMPGKGLEWMGIIYPYDSDTRYSPSFEGQVTISADKSIRTAYLHWSSLKASDTAMYYCVRPRDGSYPYDAFDIWGQGTMVTVSS
VL: EIVLTQSPGTLSLSPGERATLSCRASQSVSNNYLAWYQQKPGQAPRLLIYGASSRATGIPDRFSGSGSGTDFTLTISRLEPEDFAVYYCQHCGSSLRAFGQGTKVEIKR
notes: Human IgG1 kappa purified from hetero-hybridoma supernatant; also called human monoclonal autoantibody to the TSHR with TSH agonist activity
For B3, the “Inhibition of binding (%)” value in [1] is 63.1%; in [2] it was -6.8%; in [3] it was 77.7%; in assay [4], 95.6%; in assay [5], 89.4%; in [6], 17.2%. The “Inhibition of binding (%)” value is 95.3% in [7]; 93.3% in assay [8]; 5.9% in assay [9]; 2.2% in [10]; -9.4% in assay [11]; 83.6% in [12]. The “Inhibition of binding (%)” value was found to be 94.5% in assay [13]; 94.8% in assay [14]; 51% in [15]; 92.6% in assay [16]; 93.1% in assay [17]; 11.4% in assay [18]. The “Inhibition of binding (%)” value in assay [19] was found to be 30.3%; in [20] it was 93%; in [21], 94%; in assay [22], 96%.

B4: K1-18 Fab (Fab, V domains shown)
VH: B3 VH
VL: B3 VL
With B4, the “Inhibition of binding (%)” value in assay [1] is 38.8%; in assay [2], -8.2%; in assay [3], 63.9%; in assay [4], 85.4%; in assay [5] it was 78.7%; in assay [6] it was 7.9%. Moreover, the “Inhibition of binding (%)” value in assay [7] was 86.4%; in assay [8], 80.6%; in assay [9], 3.8%; in assay [10] it was -0.8%; in assay [11] it was -9.6%; in assay [12], 62.9%. Besides, the “Inhibition of binding (%)” value came out at 83.2% in assay [13]; 83.2% in assay [14]; 36.9% in assay [15]; 75.9% in assay [16]; 79% in assay [17]; 5% in assay [18]. Moreover, the “Inhibition of binding (%)” value is 16.7% in [19], 82.6% in assay [20], 80.8% in [21] and 85.7% in [22].
